Experiment [1] relates to PKGIα (analogue-sensitive C42S/M438G), cGMP-activated. As to the kind of experiment: Chemical genetic phosphoproteomic screen, cGMP-activated PKGIα C42S/M438G versus unactivated control. It counts as biochemical, human PKGIα; substrates in rat heart homogenate. Conditions: control = PKGIα C42S/M438G. In short, it runs like this:
(§1)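 Substrates in rat left-ventricle homogenate (20 mg ml) are labelled by engineered Met438Gly PKGIα given a bulky N6-alkylated ATPγS analogue, either as disulfide-activated M438G (oxidized, DTT-free) or as cGMP-activated C42S/M438G. Covalent capture and LC–MS/MS identify sites relative to unactivated kinase.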

Experiment [2] relates to PKGIα (analogue-sensitive M438G), disulfide-activated. As to the kind of experiment: Chemical genetic phosphoproteomic screen, disulfide-activated PKGIα M438G versus unactivated control. Conditions: control = PKGIα C42S/M438G. The class given is biochemical, human PKGIα; substrates in rat heart homogenate. Put shortly:
as §1

This is an account of results in paper PMC5095173, “Disulfide-activated protein kinase G Iα regulates cardiac diastolic relaxation and fine-tunes the Frank–Starling response” (Nature Communications, 2016).

B1: Eml1 pS108 (protein, UniProt Q4V8C3 1-814, looked up)
Echinoderm …: MEDGFSSYSSLYDTSSLLQFCNDDSASAASSMEISDRIASLEQRVQMQEDDIQLLKSALADVVRRLNITEEQQAVLNRKGPTKARPLGQTLPLRTTVNNGTVLPKKPSASLPSPSGSRKEMVVPVTKSINRTSSSERVSPGGRRESSGDSKGSRNRTGSTSSSSSGKKNSESKPKEPTFSPEEGYVKMFLRGRPVTMYMPKDQVDSYSLEAKAELPTKRLKLEWVYGYRGRDCRNNLYLLPTGETVYFIASVVVLYNVEEQLQRHYAGHNDDVKCLAVHPDRITIATGQVAGTSKDGKQLPPHVRIWDSVTLNTLHVIGIGFFDRAVTCIAFSKSNGGSHLCAVDDSNDHVLSVWDWQREERLADVKCSNEAVFAADFHPTDTNIIVTCGKSHLYFWTLEGNSLNKKQGLFEKQEKPKFVLCVTFSENGDTITGDSSGNILVWGKGTNRISYAVQGAHEGGIFALCMLRDGTLVSGGGKDRRLISWNGNYQKLHKAEIPEQFGPIRTVAEGKGNVILIGTTRNFVLQGTLTGDFTPITQGHTDELWGLAIHASKPQFLTCGHDKHATLWDAVGHRPVWDKIIEDPAQSSGFHPSGSVVAVGTLTGRWFVFDTETKDLVTVHTDGNEQLSVMRYSPDGNFLAIGSHDNCIYIYGVSDNGRKYTRVGKCSGHSSFITHLDWSVNSQFLVSNSGDYEILYWVPSACKQVVSVETTRDIEWATYTCTLGFHVFGVWPEGSDGTDINAVCRAHEKKLLSTGDDFGKVHLFSYPCSQFRAPSHIYSGHSSHVTNVDFLCEDSHLISTGGKDTSIMQWRVI
modifications: phosphorylated at S108
For B1, the “log2 fold change cGMP vs Control” value in experiment [1] worked out at 3.948. The “log2 fold change Disulfide vs Control” value in experiment [2] turned out to be 1.496.

B2: Dync1li1 pT408 (protein, UniProt Q9QXU8 1-523, looked up)
Cytoplasmic dynein 1 light …: MAAVGRVGSFGSSPPGLASTYASGPLANELASGSGGPAAGDDEDGQNLWSRILREVSTRSRSKLPTGKNVLLLGEDGAGKTSLIRRIQGIEEYKKGRGLEYLYLNVHDEDRDDQTRCNVWILDGDLYHKGLLKFSLDALSLRDTLVMLVVDMSKPWTALDSLQKWASVVREHVDKLKIPPEEMKEMEQKLIRDFQEYVEPGEDFPASPQRRATAAQEDRDDSVVLPLGADTLTHNLGLPVLVVCTKCDAISVLEKEHDYRDEHFDFIQSHIRKFCLQYGAALIYTSVKENKNIDLVYKYIVQKLYGFPYKIPAVVVEKDAVFIPAGWDNDKKIGILHENFQTLKIEDNFEDIITKPPVRKFVHEKEIMAEDDQVFLMKLQSLLAKQPPTAAGRPVDASPRVPGGSPRTPNRSVSSNVASVSPIPAGSKKIDPNMKAGATSEGVLANFFNSLLSKKTGSPGGPGVGGSPGGGAAGASTSLPPSAKKSGQKPVLSDVHAELDRITRKPASVSPTTPPSPTEGEAS
modifications: phosphorylated at T408
On to B2, for which the “log2 fold change cGMP vs Control” value in experiment [1] is 3.758. In addition, in experiment [2], the “log2 fold change Disulfide vs Control” value is 1.949.

B3: Dync1li1 pS412 (protein, UniProt Q8R1Q8 1-523, looked up)
Cytoplasmic dynein 1 light …: MAAVGRVGSFGSSPPGLASTYASGPLANELASGSGGPAAGDDEDGQNLWSCILSEVSTRSRSKLPTGKNVLLLGEDGAGKTSLIRRIQGIEEYKKGRGLEYLYLNVHDEDRDDQTRCNVWILDGDLYHKGLLKFSLDALSLRDTLVMLVVDMSKPWTALDSLQKWASVVREHVDKLKIPPEEMKEMEQKLIRDFQEYVEPGEDFPASPQRRTTGAQEDRGDSVVLPLGADTLTHNLGLPVLVVCTKCDAISVLEKEHDYRDEHFDFIQSHIRKFCLQYGAALIYTSVKENKNIDLVYKYIVQKLYGFPYKIPAVVVEKDAVFIPAGWDNDKKIGILHENFQTLKVEDNFEDIITKPPVRKFVHEKEIMAEDDQVFLMKLQSLLAKQPPTAAGRPVDASPRVPGGSPRTPNRSVSSNVASVSPIPAGSKKIDPNMKAGATSEGVLANFFNSLLSKKTGSPGGPGVGGSPGGGAAGASPSLPPSAKKSGQKPVLSDVHAELDRITRKPASVSPTTPTSPTEGEAS
modifications: phosphorylated S412
Turning to B3, the “log2 fold change cGMP vs Control” value in experiment [1] was determined as 4.149. Besides, in experiment [2], the “log2 fold change Disulfide vs Control” value is reported as 1.658.
